Measurements from patent publication US20250034594A1, “RNA-GUIDED GENOME RECOMBINEERING AT KILOBASE SCALE” (THE BOARD OF TRUSTEES OF THE LELAND STANFORD JUNIOR …, priority 2021, published 2025).

Experiments:
Type in all cases: cell-based
gene editing with Cas9 = test: Screen of 322 new SSAP proteins, gene editing activity with Cas9 (Table 5); parameters: Cas9 with SSAP activity: scale not given here
In short: (§1)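 Read-out is gene editing activity. Candidates come from sequence data mining, are made synthetically, and are tested alongside either nuclease-active Cas9 or catalytically dead dCas9.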

gene editing with dCas9 = test: Screen of 322 new SSAP proteins, gene editing activity with dCas9 (Table 5); parameters: dCas9 with SSAP activity: scale not given here
In short: as §1

[1] = system: gene editing with Cas9 and dCas9; test: Screen of 322 new SSAP proteins, activity across all experiments (Cas9 and dCas9, Table 5); parameters: scale not given here
In short: as §1

[2] = system: endogenous genome targets (ACTB, HSP90AA1); test: Arrayed SSAP library screening, mKate knock-in assay (editing efficiency); details: average of HSP90 and ACTB, 3 days after transfection; for Editing Efficiency (Normalized, Average, two targets): fold over negative control (Flag_HA); for Editing Efficiency (Absolute, Average, two targets): percent of mKate knock-in
Experimental: Arrayed SSAP library screening on endogenous genome targets (ACTB. HSP90AA1) using mKate knock-in assay.
SSAP-encoding plasmids were purified and quantified.
(§2) Each SSAP encoding plasmid was tested in duplicate, including a negative control (same plasmid encoding Flag_HA which is not expected to promote gene editing). Transfections were in 96-well plates and transfection efficiency was estimated to be 50%.
(§3) Three days after transfection, mKate positive cells and cell viability were quantified across all replicates, along with positive (original RecT SSAP) and negative (Flag-HA control protein) controls. […] At the same time, the cell viability was measured by live cell counts via flow cytometry, to help quantify the fitness effect of SSAP on mammalian cells.
(§4) SSAP proteins are identified by Uniparc deposit number and SEQ ID NO. Alignment numbers correspond to SSAPs in FIGS. 58, 59, and 60.

mammalian cells = test: Arrayed SSAP library screening, cell viability by live cell counts via flow cytometry
Experimental: as §2, §3, §4

| Molecule | Cas9 with SSAP activity (gene editing with Cas9) | Cas9 with SSAP activity (normalized) (gene editing with Cas9) | dCas9 with SSAP activity (gene editing with dCas9) | dCas9 with SSAP activity (normalized) (gene editing with dCas9) | Activity across all experiments [1] | Editing Efficiency (Normalized, Average, two targets) [2] | Editing Efficiency (Absolute, Average, two targets) [2] | Cell Viability (Average, two targets) (mammalian cells) |
| --- | --- | --- | --- | --- | --- | --- | --- | --- |
| SSAP_30: SEQ ID NO: 199 (protein) EKPKLIQRFAERFSVDPNKLFDTLKATAFKQRDGSAPTNEQMMALLVVADQYGLNPFTKEIFAFPDKQAGIIPVVGVDGWSRIINQHDQFDGMEFKTSETKVSLDGAKECPEWMECIIYRRDRSHPVKITEYLDEVYRPPFEGNGKNGPYRVDGPWQTHTKRMLRHKSMIQCSRIAFGFVGIFDQDEAERIIEGQATHVVEPSVIPPEQVDDRTRGLVYKLIERAEASNAWNSALEYANEHFQGVELTFAKQEIFNAQQQAAKALTQPLAS | 0.813 | 0.564 | −2.667 | −0.795 | −0.927 |  |  |  |
| SSAP_104: SEQ ID NO: 273; Salinicoccus albus (protein, listed as Salinicoccus albus) STNESLKNQVATNQKNEVSNGNKPKTIGDYIDQMAPAMAQALPKHMSVERMTRMATTVIRTTPQLKEADVASLLGAVMQSAQLGLEPGPMGHCYFLPFKNNKKGTTEVTFIIGYKGMIDLARRSGHISTIYAHAVYENDEFEYELGLHADLKHKPSEDERGAFKGAYAVAHFKDGGYQFEYMPKSDIDKRRSRSKAGNSNYSPWATDYEEMAKKTVIRHMWKYLPVSVEMQQAVAHDEGTGKDIKDVTPDEDSFVDMPEYIADVPAEGEGE | −4.226 | −0.744 | −2.685 | −0.421 | −3.455 |  |  |  |
| SSAP_98: SEQ ID NO: 267; Pseudomonas fluorescens (protein, listed as Pseudomonas fluorescens) NSTAETATPFSSQDLEKTQPTKAQSKTGSLASLLASPKMKSQFAAALPKHMTPERMARIVTTEIRKNPELVKCEQHSFLGAVIQCAQLGLEPGNTLGHAYILPYGKQAQLIIGYRGMIDLARRSGQIISISARTVREGDYFEYEFGLDENLIHRPVETTQPGAVTHVYAVARLKDGGRQFEVMSRAQIEEVRVQSKAAKSGPWVTHWEEMAKKTVIRRVFKYLPVSVEIQRAVMLDEKAEAGVCQENECVFDGDFEVITDTEE | 0.754 | 0.207 | −2.696 | −0.444 | −0.971 |  |  |  |
| SSAP_154: SEQ ID NO: 323; Corynebacterium urealyticum (protein, listed as Corynebacterium urealyticum) AKNLEARMQQSTNAPARADKPLSLPDQIRQMEDQFRLAMPKGAEATQLVRDALTCLRQTPQLAQCTPASVLGGLMTCAQLGLRPGVLGHAYLIPFNDRRSGNSVAQLVIGYQGLVELAHRSGQIKALIARTVYENDHFDVDYGLEDKLVHKPHMGADKGNPVAYYAVVKFTTGGHAFYVMSHPEMLQYRDKNAKSPKRGPWVDNFEAMAHKTCVRQLAKWMPKSTEFSQALATDESIRLDVTPDAINYPDHPAEGEVIDGEVEQDGGQQ | −0.806 | −0.733 | −2.710 | −0.380 | −1.758 |  |  |  |
| SSAP_64: SEQ ID NO: 233 (protein) SELQQAAQGQQSNNPVSFIYSHAKDIQNVLTKGTDMDRWLQMARLAVMRDQNLVASAKRDPGSLMQALLDCAEKGHVPGTEDYYLVPRKGGIQGMESWKGIAKRIMRSGRYQSIVNEVVYEGETFEFNPNTMDRPVHNINYMTRTSGKPVMSYAYALDHDGKPSSVAIADPRYIAKVKKNSRGSVWEDWDEQMYRKTAVKMLQDYVDTSSVDRRDVSTVQVDDANVIDVDDTFTAREAGE | 1.588 | 1.090 | −2.755 | −1.023 | −0.583 |  |  |  |
| SSAP_218: SEQ ID NO: 387; Streptococcus lutetiensis (protein, listed as Streptococcus lutetiensis) ANQLQMSHKDFFNRPAVKNKFSEVVSGKSDQFITSLLSVVNNNKLLSKADNNSILNAAMKAATLNLPIEPSLGSAYIVPFKGQAQFQLGYKGLIELAQRSGQYKSINAGVVYKAQFKSYDPLFETLDLDFNQPQDEVIGYFACFELLNGFRKITYWTREEVYNHGKRFSKSFNNGPWKTDFDAMAKKTLLKSIIGTYGPKSVDMQEAITDDNKTEYEKAEPIDVTPQEENLTDLIGETPQEELPIANPETGEIQEEQTALFNQLGDLTDD | −6.903 | −1.680 | −2.770 | −0.443 | −4.836 |  |  |  |
| SSAP_23: SEQ ID NO: 192 (protein) TNNQLATQIKRDITTDPSLLTGADIKKYFDPQNLLTEKQVGQALALCKGRNLNPFANEVYIVAYQNNSGTEFSLIVSKEAFMKRAERCEGYDGFEAGITVMRNGEMIEIEGSLKLPEDILIGGWAVVYRKDRSHRYKVTVDFNEYVKTDRNGNPRSTWKSMPATMIRKTALVQTLREAFPDELGNMYTDIDGGDTFDAIKDVTPQESREDVVARKMAQIDQFNKEQEANHADPEPTQNEDPIQGELLDGELEY | 0.839 | 0.359 | −2.835 | −0.450 | −0.998 |  |  |  |
| SSAP_239: SEQ ID NO: 408; Paenibacillus polymyxa (protein, listed as Paenibacillus polymyxa) PDKLLVIHDNLNKMLDEKSEAMPTSFNKTRFLQNCMAVLQDTKDIEQCDAKSVARTMLKGAFLGLDFFNKECYAIPYNENIGTKNKPRWIKSLQFQTDYKGEKKLAKKYSTRRVKDIYAKLVRDGDDFREEIESGQPTINFRPLPFNDGIIRGAFAVALFEDGGMIYETMSLKEIEKTRDDYSKQSTGKAWTKSPGEMYKKTVLRRLCKNIELDFDTIEQAQAFEDSSDFDMNKELKPQQQSPLNPNTTIIDAEYEEIKEEPADGPEQE | 1.340 | 0.516 | 2.282 | 1.278 | 1.811 |  |  |  |
| SSAP_10: SEQ ID NO: 179; Bet Escherichia coli (protein, listed as Escherichia coli) STALATLAGKLAERVGMDSVDPQELITTLRQTAFKGDASDAQFIALLIVANQYGLNPWTKEIYAFPDKQNGIVPVVGVDGWSRIINENQQFDGMDFEQDNESCTCRIYRKDRNHPICVTEWMDECRREPFKTREGREITGPWQSHPKRMLRHKAMIQCARLAFGFAGIYDKDEAERIVENTAYTAERQPERDITPVNNETMQEINTLLIALDKTWDDDLLPLCSQIFRRDIRASSELTQAEAVKALGFLKQKATEQKVAA |  |  |  |  |  | 5.75 | 14.25 | 1.237 |
| SSAP_29: SEQ ID NO: 198 (protein) STALATLAGKLAERVGMDSVDPQELITTLRQTAFKGDASDAQFIALLIVANQYGLNPWTKEIYAFPDKQNGIVPVVGVDGWSRIINENQQFDGMDFEQDDESCTCRIYRKDRNHPICVTEWMDECRRAPFKTREGREITGPWQSHPKRMLRHKAMIQCARLAFGFAGIYDKDEAERIVENTAYTTERQPERDITPVNEETMSEINALLTSMEKTWDDDLLPLCSQIFRRYIRASSELSQAEAEKVLGFLKQKATEQKVAA |  |  |  |  |  | 5.204 | 12.9225 | 1.131 |
| SSAP_67: SEQ ID NO: 236 (protein) TSQQLDTTHTINQQVTTFRHTLVQMKNEIAAALPAHMTGDRFLRLILTEVRKNPELAECSTESIFGGILTAAALGLEPGLNGECWLIPRKVGKGPGSRKEATFQVGYKGIIKLFWQNPLASYLDTGVVYANDAWKFRKGLDPILEHTPATGDRGAVRGYYAVVGLTTGARIFDFFTPKQISALRGTAGPNGGISDPEHWMERKTALLQVMKMAPKSTDLASAASVDGTVQTVEAAAQVAAASTGPVNPTTGEVLEAEPVEGGAA |  |  |  |  |  | 4.616 | 11.4625 | 1.088 |
| SSAP_152: SEQ ID NO: 321; Clostridiaceae bacterium (protein, listed as Clostridiaceae bacterium) SNLKKALKTNETKGNSVTVSKAYAMKQLMIKMKGEITSALPTNLSSERFEKVALTAFNSNPKLQKCDPRTFIAAMMQSAQLGLEPNTALGLAYLIPYEVKGINKVQFQIGYKGLLELANRSGKLKTLYAHEVRENDEFDIDYGLEQKLIHKPLLKGNRGNVIGYYAVYHLEPSGYNFVFMTYDEVLEHGKKYSKSFEGGVWEKEFDSMAKKTVIKKLLKYAPLSIEMQKAIVFDESVKGSIDSDMLLVDKEDESIEGSELN |  |  |  |  |  | 6.574 | 16.25 | 1.159 |
